The values below come from patent publication US20150111822A1.

The assay concerns the target Fzd7/Sdc4 co-receptor complex (mouse) (UniProt Q61090). Nature of the assay: cell-based or functional assay.

Fzd7/Sdc4 co-receptor complex (mouse), sequence (O35988 24-198, chain 2 of 2, other chains not shown): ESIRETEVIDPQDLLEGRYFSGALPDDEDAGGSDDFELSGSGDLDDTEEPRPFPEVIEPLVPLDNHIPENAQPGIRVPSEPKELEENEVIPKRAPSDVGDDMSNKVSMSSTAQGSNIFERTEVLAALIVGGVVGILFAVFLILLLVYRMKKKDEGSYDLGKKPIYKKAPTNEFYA

As for “recombinant Wnt7a (R&D Systems) (ligand)”, the increase in the proportion of symmetric cell divisions, COL&Wnt7a against COL alone, 42 h is 108%.
Substance “human plasma fibronectin (BD biosciences) (from UniProt P02751 32-2296) (ligand)” registered an increase in numbers of Pax7+/YFP+ cells, FN&Wnt7a condition, 72 h of 38%; an increase in numbers of satellite stem cells, FN&Wnt7a relative to COL&Wnt7a, 72 h of 156%; an increase in the proportion of symmetric Pax7+/YFP- cell divisions, FN&Wnt7a, 42 h of 163%.
